Results on eight molecules are retold here after patent US20050202450A1 (US Dept. of Health and Human Services, published 2005).

Sequences and labels used below:
B1: Gal4-HIF1α(498-603) (other)
chain: MKLLSSIEQACDICRLKKLKCSKEKPKCAKCLKNNWECRYSPKTKRSPLTRAHLTEVESRLERLEQLFLLIFPREDLDMILKMDSLQDIKALLTGLFVQDNVNKDAVTDRLASVETDMPLTLRQHRISATSSSEESSNKGQRQLTVSTPSPSDGSTRQSSPEPNSPSEYCFYVDSDMVNEFKLELVEKLFAEDTEAKNPFSTQDTDLDLEMLAPYIPMDDDFQLRSFDQLSPLESSSASPESASPQSTVTVFQ
notes: also called Gal4-C-ODD; C-ODD

One test addresses T1, V5-tagged PHD1/HPH3 (human, UniProt Q96KS0 1-407, limits assumed).
T1 construct: V5/His-tagged expression plasmid; not shown: V5/His tag
The test can be described thus: co-immunoprecipitation with anti-Gal4, Western blot with anti-V5, 293 cells with Cbz-LLL. Background: In western blotting, separated proteins are transferred to a membrane and probed.

The target of test [1] is T2, VHL protein (endogenous, in Hep3B / 293 cell extracts) (UniProt P40337 1-213, limits assumed). The test can be described thus: cell-based or functional assay.
In the test “Gal4-HIF1α(498-603)” the target is B1. The test can be described thus: co-immunoprecipitation with anti-Gal4, Western blot with anti-V5, 293 cells with Cbz-LLL.
Procedure: (§1) One microgram of each plasmid was used. After treatment with Cbz-LLL for 4 h, cells were lyzed in a buffer (35) containing 25 mM Tris (pH 7.5), 300 mM NaCl, and 1% Triton-X. The lysate was immunoprecipitated with anti-Gal4 polyclonal antibody (Santa Cruz), followed by immunoblotting with anti-V5 antibody (Invitrogen) and monoclonal anti-Gal4 antibody (Santa Cruz).
(§2) To that end, we performed co-immunoprecipitations of C-ODD with the HIF prolyl hydroxylases.
In test [2] the target is T2, VHL protein (endogenous, in Hep3B / 293 …). The experiment in a line: EMSA super-shift with anti-VHL, transfected 293 cells. On the technique in general: In EMSA bound probe runs differently from free probe, usually more slowly.
In test [3] the target is T3, VHL protein, HA-tagged, in vitro translated from p(HA)VHL (UniProt P40337 1-213).
T3 construct: not shown: HA tag
The test can be described thus: in vitro co-immunoprecipitation with anti-VHL, 35S-labeled Gal4 fusion.

In a further test the target is T4, V5-tagged PHD2/HPH2 (human, UniProt Q9GZT9 1-426, limits assumed).
T4 construct: V5/His-tagged expression plasmid; also called HIF prolyl-4-hydroxylase; not shown: V5/His tag
The test can be described thus: co-immunoprecipitation with anti-Gal4, Western blot with anti-V5, 293 cells with Cbz-LLL.

T2 sequence (P40337 whole entry, the tested form may be a part): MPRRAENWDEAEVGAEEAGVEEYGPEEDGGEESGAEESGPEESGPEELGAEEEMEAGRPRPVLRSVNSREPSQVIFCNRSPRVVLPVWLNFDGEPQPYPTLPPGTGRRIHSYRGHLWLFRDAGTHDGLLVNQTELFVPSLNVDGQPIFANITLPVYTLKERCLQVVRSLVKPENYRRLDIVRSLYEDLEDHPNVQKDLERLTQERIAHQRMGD
T3 sequence (P40337 whole entry): as the sequence (P40337 whole entry, the tested form may be a part) above
T4 sequence (Q9GZT9 whole entry): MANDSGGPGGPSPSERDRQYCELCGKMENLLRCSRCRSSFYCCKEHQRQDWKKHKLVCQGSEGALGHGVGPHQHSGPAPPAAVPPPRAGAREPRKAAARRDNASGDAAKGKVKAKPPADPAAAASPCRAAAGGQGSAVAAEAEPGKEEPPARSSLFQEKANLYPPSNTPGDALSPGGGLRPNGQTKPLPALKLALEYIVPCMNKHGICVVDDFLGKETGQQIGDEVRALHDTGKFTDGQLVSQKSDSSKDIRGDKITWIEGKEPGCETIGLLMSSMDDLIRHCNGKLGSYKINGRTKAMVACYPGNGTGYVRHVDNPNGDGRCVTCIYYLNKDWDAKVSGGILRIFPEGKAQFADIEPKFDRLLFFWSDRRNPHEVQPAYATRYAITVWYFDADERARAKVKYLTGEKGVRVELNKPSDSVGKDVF
T1 sequence (Q96KS0 whole entry): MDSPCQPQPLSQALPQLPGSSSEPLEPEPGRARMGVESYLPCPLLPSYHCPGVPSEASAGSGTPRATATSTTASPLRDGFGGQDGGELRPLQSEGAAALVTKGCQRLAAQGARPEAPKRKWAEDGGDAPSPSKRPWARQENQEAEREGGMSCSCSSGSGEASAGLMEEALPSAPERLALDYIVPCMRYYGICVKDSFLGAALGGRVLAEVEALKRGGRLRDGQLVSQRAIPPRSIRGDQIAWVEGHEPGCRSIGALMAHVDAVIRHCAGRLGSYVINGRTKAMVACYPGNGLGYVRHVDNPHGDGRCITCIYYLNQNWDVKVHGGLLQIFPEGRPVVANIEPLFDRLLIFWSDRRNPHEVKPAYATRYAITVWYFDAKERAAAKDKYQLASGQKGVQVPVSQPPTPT
Procedure for V5-tagged PHD1/HPH3: as §1, §2
Procedure for V5-tagged PHD2/HPH2: as §1, §2

In the case of B1, the binding result in the test with V5-tagged PHD1/HPH3 is “no binding”.

B2: Gal4-HIF1α(498-574) (other)
chain: MKLLSSIEQACDICRLKKLKCSKEKPKCAKCLKNNWECRYSPKTKRSPLTRAHLTEVESRLERLEQLFLLIFPREDLDMILKMDSLQDIKALLTGLFVQDNVNKDAVTDRLASVETDMPLTLRQHRISATSSSEESSNKGQRQLTVSTPSPSDGSTRQSSPEPNSPSEYCFYVDSDMVNEFKLELVEKLFAEDTEAKNPFSTQDTDLDLEMLAPYIPMDDDFQL
With B2, in test [1], the “Gal4 luciferase reporter activity (Hep3B cells), in comparison to Gal4-HIF1α(498-573)” value was determined as 6.5 fold decrease and the “protein levels under normoxia (Western blot, 293 cells), in comparison to Gal4-HIF1α(498-573)” value is ~3 fold decrease.

B3: V5-tagged PHD3/HPH1 (enzyme, human, UniProt Q9H6Z9 1-239, looked up)
chain: MPLGHIMRLDLEKIALEYIVPCLHEVGFCYLDNFLGEVVGDCVLERVKQLHCTGALRDGQLAGPRAGVSKRHLRGDQITWIGGNEEGCEAISFLLSLIDRLVLYCGSRLGKYYVKERSKAMVACYPGNGTGYVRHVDNPNGDGRCITCIYYLNKNWDAKLHGGILRIFPEGKSFIADVEPIFDRLLFFWSDRRNPHEVQPSYATRYAMTVWYFDAEERAEAKKKFRNLTRKTESALTED
notes: V5/His-tagged expression plasmid; not shown: V5/His tag
For the molecule B3, the binding result with Gal4-HIF1α(498-603) is reported as “no binding”.

B4: Gal4-HIF1α(530-573) (other)
chain: MKLLSSIEQACDICRLKKLKCSKEKPKCAKCLKNNWECRYSPKTKRSPLTRAHLTEVESRLERLEQLFLLIFPREDLDMILKMDSLQDIKALLTGLFVQDNVNKDAVTDRLASVETDMPLTLRQHRISATSSSEESSNKGQRQLTVSEFKLELVEKLFAEDTEAKNPFSTQDTDLDLEMLAPYIPMDDDFQ
Take B4: the binding result in test [2] and in test [3] was “no binding” throughout.

B5: Gal4-HIF1α(498-574)L574S (other, not shown: large carriers; small tags and cut ends)
chain: TPSPSDGSTRQSSPEPNSPSEYCFYVDSDMVNEFKLELVEKLFAEDTEAKNPFSTQDTDLDLEMLAPYIPMDDDFQS
As for B5, in test [3], the binding result is on record as “no binding”.

B6: Gal4-HIF1α(401-603) with Pro-564 mutated to alanine (other, not shown: large carriers; small tags and cut ends)
chain: APAAGDTIISLDFGSNDTETDDQQLEEVPLYNDVMLPSPNEKLQNINLAMSPLPTAETPKPLRSSADPALNQEVALKLEPNPESLELSFTMPQIQDQTPSPSDGSTRQSSPEPNSPSEYCFYVDSDMVNEFKLELVEKLFAEDTEAKNPFSTQDTDLDLEMLAAYIPMDDDFQLRSFDQLSPLESSSASPESASPQSTVTVFQ
For the molecule B6, the binding result in test [3] was “no binding”.

B7: Gal4-HIF1α(574-603) (other)
chain: MKLLSSIEQACDICRLKKLKCSKEKPKCAKCLKNNWECRYSPKTKRSPLTRAHLTEVESRLERLEQLFLLIFPREDLDMILKMDSLQDIKALLTGLFVQDNVNKDAVTDRLASVETDMPLTLRQHRISATSSSEESSNKGQRQLTVSLRSFDQLSPLESSSASPESASPQSTVTVFQ
For B7, the binding result in test [3] is recorded as “no binding”.

B8: Gal4-HIF1α(498-603)L574S (other, not shown: large carriers; small tags and cut ends)
chain: TPSPSDGSTRQSSPEPNSPSEYCFYVDSDMVNEFKLELVEKLFAEDTEAKNPFSTQDTDLDLEMLAPYIPMDDDFQSRSFDQLSPLESSSASPESASPQSTVTVFQ
notes: also called Gal4-C-ODD L574S mutant
On to B8, for which the binding result (in the test with V5-tagged PHD2/HPH2; in test [3]) was “no binding” in each case. Also, the “Gal4 luciferase reporter activity (Hep3B cells) under oxygenated conditions, in comparison to the wild-type” value in test [1] is 4.3 fold increase. In addition, the “expression level (Western blot, 293 cells), in comparison to Gal4-HIF1α(498-603)” value in test [1] stood at 7 fold increase.
